Experimental data: paper PMC4758025, “Critical Assessment of Protein Cross-Linking and Molecular Docking: An Updated Model for the Interaction Between Photosystem II and Psb27” (Frontiers in Plant Science, 2016)

B1: Im7-tagged lumenal domain of CP43 (residues 293-424) (domain or fragment)
chain: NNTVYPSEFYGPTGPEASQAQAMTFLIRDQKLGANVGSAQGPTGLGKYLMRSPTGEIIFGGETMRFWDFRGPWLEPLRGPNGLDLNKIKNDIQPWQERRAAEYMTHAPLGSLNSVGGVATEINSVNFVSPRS
modifications: Im7 fusion carrier omitted. Printed 293-424 taken as PDB 3ARC numbering, which is UniProt +12: printed K381, K339 and D383 then correspond to entry K369, K327 and D371, and the range spans the …
B2: Im7-tagged mature D1 C-terminus (mD1, residues 295-344) (domain or fragment)
chain: not shown
notes: D1 (PsbA) of photosystem II, mature C-terminus, residues 295-344; source: cell-free expression (RTS100 system), purified on the chip
B3: recombinant Psb27 (natural protein, T. elongatus, UniProt Q8DG60 22-134, looked up)
chain: CANVPTGLTGNFREDTLALISSLREAIALPENDPNKKAAQAEARKKLNDFFALYRRDDSLRSLSSFMTMQTALNSLAGHYSSYPNRPLPEKLKARLEQEFKQVELALDREAKS
notes: by the printed primers the natural stretch begins ANVPT and ends REAKS; No lipid modification, as the N-terminal cysteine is missing; the His tag is inferred; source: E. coli Overexpress C43, purified (IMAC, ResourceS ion exchange)
B4: Im7-tagged C-terminal lumenal domain of D2 (residues 294-352) (domain or fragment)
chain: not shown
notes: D2 (PsbD) of photosystem II, C-terminus, residues 294-352; source: cell-free expression (RTS100 system), purified on the chip
B5: Psb27 in the monomeric Psb27-PSII intermediate complex (natural protein, T. elongatus (endogenous), UniProt Q8DG60 22-134, looked up)
chain: B3 chain
modifications: N-terminal lipid modification
notes: Psb27 of T. elongatus (tll2462), as it stands in the isolated Psb27-PSII complex; source: endogenous, Psb27-PSII complex isolated from wild-type T. elongatus

What was measured:
Conditions in all cases: both partners purified
recombinant Psb27 = molecular target: B3; assay: SPR; Biacore 3000, CM5 chip; Im7 fusion proteins captured on covalently bound DNase E7; Psb27 injected from 50 μM to 100 nM for 60 s in MBS-EP (20 mM MES, 150 mM NaCl, 3 mM EDTA, 0.05% Surfactant P20, pH 6.5), 30 μl/min, 298 K; steady-state responses fitted to a one-site binding isotherm
[1] = molecular target: T1, Im7-tagged lumenal domain of CP47 (residues 271-446) (UniProt Q8DIQ1 271-446); assay: as above
T1 construct: CP47 (PsbB) of photosystem II, lumenal domain, residues 271-446; also called CP47 domain; source: cell-free expression (RTS100 system), purified on the chip
T1 sequence (Q8DIQ1 271-446): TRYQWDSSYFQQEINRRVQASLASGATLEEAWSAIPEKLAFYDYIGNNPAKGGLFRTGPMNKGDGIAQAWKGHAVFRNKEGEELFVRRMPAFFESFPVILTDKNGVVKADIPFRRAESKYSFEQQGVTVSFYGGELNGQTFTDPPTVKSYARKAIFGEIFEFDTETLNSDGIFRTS

[2] = molecular target: T2, CP43 in the monomeric Psb27-PSII intermediate complex (T. elongatus (endogenous), UniProt Q8DIF8 1-461); assay: cross-linking; isolated monomeric Psb27-PSII complex without PsbO, PsbU and PsbV (2.4 μM) with a 1:1 mixture of BS3-H12/D12 (5 mM), 30 min on ice, 20 mM MES/NaOH, 10 mM CaCl2, 0.03% dodecyl-β-D-maltoside, pH 6.5; trypsin, LC-ESI-MS/MS, StavroX; found in light and heavy form
T2 construct: CP43 (PsbC) of photosystem II of T. elongatus; source: endogenous, Psb27-PSII complex isolated from wild-type T. elongatus

Row | Kd (recombinant Psb27) [µM] | also measured | Binder
1 | 21 |  | B1
2 | 34 |  | B2
3 |  | Kd [1]: ~100 µM | B3
4 | ~100 |  | B4
5 |  | binding result [2]: binds | B5
